T1: Human IL-11 (human, UniProt P20809 22-199)
T1 construct: Recombinant human IL-11 (GenScript Cat. No. Z03108-1) or IL-11 secreted by human cells; the mature form is said to have 178 residues; also called recombinant human IL-11; endogenously produced IL-11
T1 sequence: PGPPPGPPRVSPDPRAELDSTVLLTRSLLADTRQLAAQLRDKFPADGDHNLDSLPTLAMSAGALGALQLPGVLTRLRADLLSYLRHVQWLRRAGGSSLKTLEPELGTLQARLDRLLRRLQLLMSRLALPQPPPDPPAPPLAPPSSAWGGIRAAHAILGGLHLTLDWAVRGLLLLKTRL

T2: Mouse IL-11 (mouse, UniProt P47873 22-199, limits assumed)
T2 construct: also called murine IL-11; recombinant murine IL-11
T2 sequence (looked up): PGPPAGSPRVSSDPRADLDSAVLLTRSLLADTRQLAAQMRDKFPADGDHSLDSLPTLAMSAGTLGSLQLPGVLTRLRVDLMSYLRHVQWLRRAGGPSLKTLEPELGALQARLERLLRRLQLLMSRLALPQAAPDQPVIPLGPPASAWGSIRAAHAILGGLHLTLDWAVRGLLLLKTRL


Columns and labels:
Human IL-11 [1] = target: T1, Human IL-11; experiment: ELISA
Experimental: (§1) The soluble scFv were produced by recombinant expression in E. coli, and analysed for their ability to bind to human IL-11 and murine IL-11 by ELISA. Briefly, the respective antigen was coated to wells of an ELISA plate, the cell culture supernatant containing the respective scFv was added at a 1:2 dilution, and binding was detected.

Mouse IL-11 = target: T2, Mouse IL-11; experiment: ELISA
Experimental: as §1

Human IL-11 [2] = target: T1, Human IL-11; experiment: cell-based or functional assay
Human IL-11 [3] = target: T1, Human IL-11; experiment: ELISA on coated recombinant human IL-11 (100 ng/well), scFv-Fc
Experimental: The light chain shuffled anti-IL-11 antibodies were analysed to determine the EC50 for binding to human IL-11 by ELISA according to standard methods. Briefly, wells of microtiter plates were coated with recombinant human IL-11 (100 ng/well), scFv-Fc comprising the VH and VL domains of the clones were added in a dilution series and antibody binding was detected using a polyclonal antibody detection system.

hIL11 - average signal (Human IL-11 [1]) | mIL11 - average signal (Mouse IL-11) | MMP2 production, Experiment 1 (human atrial fibroblasts + TGFB1) (Human IL-11 [2]) [ng/mL] | MMP2 production, Experiment 2 (human atrial fibroblasts + TGFB1) (Human IL-11 [2]) [ng/mL] | EC50 (Human IL-11 [3]) [µg/mL] | Binder
0.319 | 0.395 | 44.5 | 37.6 | 0.027 | YU100-F11 (antibody, V domains shown, light chain-shuffled human anti-IL-11 clone) VH: QVQLVESGGGVVQPGRSLRLSCAASGFTFSSYGMHWVRQAPGKGLEWVAVISYDGSNKYYADSVKGRFTISRDNSKNTLYLQMNSLRAEDTAVYYCAKIGATDPLDYWGQGTLVTVSS VL: QSALTQPASVSGSPGQSITISCTGSSSDVAGYNYVSWYQQHPGKAPKLMIYDVTKRPSGVPDRFSGSKSGNTASLTISGLQAEDEADYYCCSYAGSYTWVFGGGTQLTVLG
0.338 | 0.297 | 56.1 | 47 | 0.033 | YU100-E10 (antibody) QVQLVQSGGGVVQPGRSLRLSCAASGFTFSSYGMHWVRQAPGKGLEWVAVISYDGSNKYYADSVKGRFTISRDNSKNTLYLQMNSLRAEDTAVYYCAKIGATDPLDYWGQGTLVTVSSGSASAPKLEEGEFSEARVQSALTQPRSVSGSPGQSVTISCTGTSSDVGGYNYVSWYQQHPGKAPKLMIFDVSQRPSGVPDRFSASKSGNTASLTISGLQAEDEADYYCCSYAGSYTWVFGGGTKLTVL
0.361 | 0.303 | 51.2 | 43.5 | 0.018 | YU100-F02 (antibody) EVQLVESGGGVVQPGRSLRLSCAASGFTFSSYGMHWVRQAPGKGLEWVAVISYDGSNKYYADSVKGRFTISRDNSKNTLYLQMNSLRAEDTAVYYCAKIGATDPLDYWGQGTLVTVSSGSASAPKLEEGEFSEARVQSALTQPRSVSGSPGQSVTISCTGTSSDVGGYNYVSWYQQHPGKAPKLMIYDVTKRPSGVPDRFSGSKSGNTASLTISGLQADDEADYYCCSYAGSYTWIFGGGTKLTVL
0.205 | 0.31 | 56.6 | 49.7 | 0.019 | YU100-G01 (antibody) QVQLVQSGGGVVQPGRSLRLSCAASGFTFSSYGMHWVRQAPGKGLEWVAVISYDGSNKYYADSVKGRFTISRDNSKNTLYLQMNSLRAEDTAVYYCAKIGATDPLDYWGQGTLVTVSSGSASAPKLEEGEFSEARVQSALTQPRSVSASPGQSVTISCTGTSSDVGAYNYVSWYQQHPGKAPKLMLYDVNKRPSGVPDRFSGSKSGNTASLTISRLQAEDEADYYCCSYAGSYTWVFGGGTKLTVL
0.214 | 0.251 | 48.2 | 59.7 | 0.032 | YU100-E08 (antibody) QVQLVQSGGGVVQPGRSLRLSCAASGFTFSSYAMHWVRQAPGKGLEWVAVISYDGSNKYYADSVKGRFTISRDNSKNTLYLQMNSLRAEDTAVYYCARIMGYDYGDYDVVDYWGQGTLVTVSSGSASAPKLEEGEFSEARVQSALTQPRSVSGSPGQSVTISCTGTSSDVGGYNYVSWYQQHPGKAPKLMIYDVSRRPSGVPDRFSGSKSGNTASLTISGLQAEDEADYYCCSYAGNYTWMFGGGTKLTVL
0.224 | 0.335 | 51.7 | 44.4 | 0.019 | YU100-E09 (antibody) QVQLVESGGGVVQPGRSLRLSCAASGFTFSSYAMHWVRQAPGKGLEWVAVISYDGSNKYYADSVKGRFTISRDNSKNTLYLQMNSLRAEDTAVYYCARIMGYDYGDYDVVDYWGQGTLVTVSSGSASAPKLEEGEFSEARVQSALTQPRSVSGSPGQSVTISCTGTSSDVGDYDYVSWYQQHPGKAPKLIIYDVTKRPSGIPDRFSGSKSGNTASLTISGLQAEDEADYYCCSYAGSYTWVFGRGTKLTVL
0.268 | 0.435 | 49.1 | 41.9 | 0.028 | YU100-E11 (antibody) QVQLVESGGGVVQPGRSLRLSCAASGFTFSSYGMHWVRQAPGKGLEWVAVISYDGSNKYYADSVKGRFTISRDNSKNTLYLQMNSLRAEDTAVYYCARIMGYDYGDYDVVDYWGQGTLVTVSSGSASAPKLEEGEFSEARVQSALTQPRSVSGSPGQSVTISCTGTSSDVGGYNYVSWYQQHPGKAPKLMIYDVSKRPSGVPDRFSGSKSGNTASLTISGLQAEDEADYYCCSYAGSYTWVFGGGTKLTVL
0.193 | 0.247 | 52.1 | 46.5 | 0.023 | YU100-E07 (antibody) QVQLQESGGGVVQPGRSLRLSCAASGFTFSSYGMHWVRQAPGKGLEWVAVISYDGSNRYYADSVKGRFAISRDNSKNTLYLQMNSLRAEDTAVYYCAKIGATDPLDYWGQGTLVTVSSGSASAPKLEEGEFSEARVQSALTQPRSVSGSPGQSVTISCTGTSSDVGGYDYVSWYQQHPGKAPELMIYDVTKRPSGVADRFSGSKSGNTASLTISGLQAEDEADYYCCSYAGRYTWVFGGGTKLTVL
0.172 | 0.148 | 53.1 | 46.6 | 0.041 | YU100-F07 (antibody) QVQLVESGGGVVQPGRSLRLSCAASGFTFSSYAMHWVRQAPGKGLEWVAVISYDGSNKYYADSVKGRFTISRDNSKNTLYLQMNSLRAEDTAVYYCARIMGYDYGDYDVVDYWGQGTLVTVSSGSASAPKLEEGEFSEARVQSALTQPRSVSVSPGQSVTISCTGTSSDVGGYEYVSWYQQHPGKAPKLMIYDVTKRPSGVPDRFSGSKSGNTASLTISGLQGEDAADYYCCSYAGSYTWVFGGGTTVTVL
0.464 | 0.528 | 52.8 | 39.9 | 0.018 | YU100-F01 (antibody) QVQLVQSGGGVVQPGRSLRLSCAASGFTFSSYGMHWVRQAPGKGLEWVAVISYDGSNKYYADSVKGRFTISRDNSKNTLYLQMNSLRAEDTAVYYCAKIGATDPLDYWGQGTLVTVSSGSASAPKLEEGEFSEARVQSALTQPASVSGSPGQSITISCTGTGSDVGAYDYVSWYQQHPGKAPKLMIYDVNNRPSGVSNRFSGSKSGNTASLTISGLQAEDEAEYYCSSFATSISWVFGGGTRLTVL
0.262 | 0.404 | 54 | 45.4 | 0.034 | YU100-G10 (antibody) QVQLVQSGGGVVQPGRSLRLSCAASGFTFSSYGMHWVRQAPGKGLEWVAVISYDGSNKYYADSVKGRFTISRDNSKNTLYLQMNSLRAEDTAVYYCAKIGATDPLDYWGQGTLVTVSSGSASAPKLEEGEFSEARVQSALTQPASVSGSLGQSITMSCTGTRRDVGGYDFVSWYQQYPGKAPKLIIYDVSNRPSGVSNRFTGSKSGNTASLTISGLQAEDEADYYCCSYAGTYTWVFGGGTKVTVL
0.426 | 0.5 | 56 | 47.9 | 0.016 | YU100-E12 (antibody) QVQLVESGGGVVQPGRSLRLSCAASGFTFSSYGMHWVRQAPGKGLEWVAVISYDGSNKYYADSVKGRFTISRDNSKNTLYLQMNSLRAEDTAVYYCAKIGATDPLDYWGQGTLVTVSSGSASAPKLEEGEFSEARVQSALTQPASVSGSPGQSITISCTGTSSDVGGYNYVSWYQQHPGTAPKLMIYDVSNRPSGVSNRFSGSKSGNTASLTISGLQAEDEADYYCSSYTSSTTWVFGGGTKLTVL
0.203 | 0.206 | 59 | 49.7 | 0.018 | YU100-G07 (antibody) QVQLVESGGGVVQPGRSLRLSCAASGFTFSSYGMHWVRQAPGKGLEWVAVISYDGSNKYYADSVKGRFTISRDNSKNTLYLQMNSLRAEDTAVYYCAKIGATDPLDYWGQGTLVTVSSGSASAPKLEEGEFSEARVQSALTQPASVSGSPGQSITISCTGTSSDVGAYDYVSWYQQHPGKAPKLMIYDVTNRPSGVSNRFSGSKSGNTASLTISGLQAEDEADYYCASYTRSSVWVFGGGTKLTVL

Reference: patent US20210230266A1 (SINGAPORE HEALTH SERVICES PTE, published 2021)
